# T1: H3K9me2 peptide
# T1 chain: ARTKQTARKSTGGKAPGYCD
# Target: T1, H3K9me2 peptide
protein,measurement,value
SUV39H1 (protein) EVEYLCDYKKIREQEYYLVKWRGYPDSESTWEPRQNLKCVRILKQFHKDLERELLRRHHRSKTPRHLDPSLANYLVQKAKQRRALRRWEQELNAKRSHLGRITVENEVDLDGPPRAFVYINEYRVGEGITLNQVAVGCECQDCLWAPTGGCCPGASLHKFAYNDQGQVRLRAGLPIYECNSRCRCGYDCPNRVVQKGIRYDLCIFRTDDGRGWGVRTLEKIRKNSFVMEYVGEIITSEEAERRGQIYDRQGATYLFDLDYVEDVYTVDAAYYGNISHFVNHSCDPNLQVYNVFIDNLDERLPRIAFFATRTIRAGEELTFDYNMQVDPVDMESTRMDSNFGLAGLPGSPKKRVRIECKCGTESCRKYLF,histone methyltransferase activity (H3K9me3 product detected by ELISA with 309M3-A),"activity of the HMT SUV39H1 and its inhibition by an HMT inhibitor, chaetocin (Greiner et al., 2005), were clearly observed with 309M3-A"

# Reference: patent publication US20160130329
